This is an account of results in patent US20130052663A1 (ADDEX PHARMA SA, priority 2010, published 2013).

Assay [1] deals with T1, chimeric TNFR1-PDGFR Receptor (Homo sapiens, UniProt P19438).
T1 construct: yielding the expression construct pcDNA3.1 hygro TNFR1(fl)-PDGFR(cd) vector; mouse PDGFRb cytoplasmic tyrosine kinase domain (fusion partner); expressed in transfected cells; host or cells: HEK293T cells stably expressing apoaequorin
In words: Ca2+-dependent aequorin luminescence in HEK293T Aequorin cells expressing chimeric TNFR1(fl)-PDGFR(cd) receptor, HTS setting. The assay is classed as cell-based, human TNFR1 / mouse PDGFR. The following applies: for Effect on TNF-dependent intracellular calcium increase (luminescence AUC): 1 μM inhibitor, 3 ng/ml TNF. An excerpt: HEK293T stably expressing Apoaequorin were generated using standard cloning techniques. The HEK293T cells expressing Apoaequorin (“Aequorin cells”) were then further transfected as described in Examples 1-3 so as to express the chimeric receptors 1-3 as listed in Table 3.
In particular, the HEK293T Apoaequorin cells were transfected with pcDNA3.1 hygro TNFR1-fl-PDGFR-cd vector as prepared in Example 1 using Optifect™ Transfection Reagent (Invitrogen), according to the manufacturer's protocol.
HEK293T cells expressing Apoaequorin and the chimeric receptor (Example 4) were plated in 384-well plates at a concentration of 12500 cells per well in a final volume of 50 μl. The next day culture supernatants were removed and 25 μl labeling buffer (DMEM:F12 plus 0.1% BSA) containing 2.5 μM Coelenterazine h (Dalton Pharma services), was added. Cells were incubated at room temperature for 6 hrs. A FDSS7000 reader from Hamamatsu (Japan) was used to examine intracellular calcium levels. […] The instrument features include detection with a camera of fluorescence or luminescence and automatically converts fluorescence or luminescence signals into numeric data. This digital data is then used to determine the concentration of calcium inside the analyzed cells. The information is automatically analyzed in terms of a positive, negative or null effect of each test compound being examined. This system allowed differences between untreated and treated cells to be measured, for example by measuring the calcium flux in cells.
After a baseline reading of 10 seconds, cells were incubated for 3 minutes with different doses of inhibitors or buffer controls. […] The results were analyzed using the FDSS analysis software from Hamamatsu. […]
HEK293T Aequorin cells expressing fusion proteins as described in Example 4 were treated or not treated with 3 ng/ml of TNF and 300 ng/ml of an anti-TNFR1 antagonist monoclonal antibody (MAB225, R&D Systems) was added to half of the samples exposed to TNF. Following 10 minutes of exposure after TNF addition, the area under the curve was determined for each sample. […]
In general terms: Calcium flux is commonly read through the fluorescence of an indicator in the cells.

Assay [2] deals with chimeric receptor TNFR1(fl)-PDGFR(cd): full length human TNFR1 fused to the cytoplasmic tyrosine kinase domain of mouse PDGFR (human TNFR1 / mouse PDGFR). Kind of assay: cell-based or functional assay.
Target sequence (chain, as listed by the source mutant limits assumed): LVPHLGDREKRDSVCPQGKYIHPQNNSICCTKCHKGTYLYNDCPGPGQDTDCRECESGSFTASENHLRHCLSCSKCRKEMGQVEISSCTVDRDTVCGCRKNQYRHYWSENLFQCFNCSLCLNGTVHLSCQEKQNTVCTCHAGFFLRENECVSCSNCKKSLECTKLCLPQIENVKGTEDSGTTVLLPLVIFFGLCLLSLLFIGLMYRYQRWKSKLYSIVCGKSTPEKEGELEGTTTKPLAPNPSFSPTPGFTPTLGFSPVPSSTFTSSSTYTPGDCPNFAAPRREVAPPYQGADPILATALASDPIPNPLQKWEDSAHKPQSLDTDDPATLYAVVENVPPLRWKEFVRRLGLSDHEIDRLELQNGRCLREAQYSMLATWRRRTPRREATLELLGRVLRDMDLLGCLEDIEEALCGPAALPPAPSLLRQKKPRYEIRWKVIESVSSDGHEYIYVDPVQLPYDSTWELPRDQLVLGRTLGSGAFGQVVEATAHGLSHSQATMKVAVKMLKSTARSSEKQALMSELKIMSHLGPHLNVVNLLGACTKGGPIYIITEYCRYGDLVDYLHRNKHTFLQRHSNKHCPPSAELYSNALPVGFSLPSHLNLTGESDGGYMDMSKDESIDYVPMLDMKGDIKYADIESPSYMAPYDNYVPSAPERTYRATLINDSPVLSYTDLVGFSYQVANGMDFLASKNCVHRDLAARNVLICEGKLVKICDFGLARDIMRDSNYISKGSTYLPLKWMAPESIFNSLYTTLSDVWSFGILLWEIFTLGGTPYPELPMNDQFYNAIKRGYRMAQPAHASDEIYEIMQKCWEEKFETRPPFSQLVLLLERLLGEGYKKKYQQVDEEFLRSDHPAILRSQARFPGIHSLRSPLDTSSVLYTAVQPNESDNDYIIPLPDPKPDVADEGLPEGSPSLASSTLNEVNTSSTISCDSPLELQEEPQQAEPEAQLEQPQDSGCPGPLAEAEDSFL

T1 sequence (P19438 with tags, fused parts or gaps): as the sequence (chain, as listed by the source mutant limits assumed) above

As for `COc1cc2ncnc(N3CCN(C(=O)Nc4ccc(Oc5ccccc5)cc4)CC3)c2cc1OC` [PDGFR Tyrosine Kinase Inhibitor III, 4-(6,7-Dimethoxy-4-quinazolinyl)-N-(4-phenoxyphenyl)-1-piperazinecarboxamide], the “Effect on TNF-dependent intracellular calcium increase (luminescence AUC)” value in assay [1] is on record as “prevented the detection of intracellular calcium increase”; in assay [1] (listed as PDGFR tyrosine kinase inhibitor) it was “signalling is blocked”. Further, in assay [1] (inhibitor 3 μM to 0.45 nM, cells exposed to TNF), the “Inhibitory efficacy (dose response), compared with full-length PDGFR cells” value is given as “equal inhibitory efficacy”.

In assay [2], Tumor necrosis factor (TNF) (ligand) displayed an EC50, Ca2+-dependent aequorin luminescence, AUC over 10 minutes of 1.27 ng/mL; an EC50, Ca2+-dependent aequorin luminescence, Max-Min of 1.06 ng/mL; an EC80, Ca2+-dependent aequorin luminescence, AUC over 10 minutes of 2.9 ng/mL; an EC80, Ca2+-dependent aequorin luminescence, Max-Min of 3 ng/mL.
